# Test results taken from the RNAGym collection of RNA variant scans (doi:10.1073/pnas.2313332121).
# B1: TPR t1 (parent)
# chain: GACCAAUCUGCCCUCAGAGCUCGAGAACAUCUUCGGAUGCAGAGGAGGCAGGCUUCGGUGGCGCGAUAGCGCCAACGUCCUCAACCUCCAAUGCAUCCCACCACAUGAUGAUGCCUGAAGAGCCUUGGUUUUUUG
# Variants of: B1
# Test: polymerase ribozyme fitness, log enrichment relative to wild type (log ratio); higher = more active; in vitro selection for triplet polymerase activity
# Method in brief: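 Mutant libraries were PCR-built and transcribed for each subunit of a heterodimeric triplet polymerase ribozyme and selected for one round in triplicate at −7 °C, frozen, before gel excision of extended constructs and streptavidin-bead capture. Input and output libraries were Illumina-sequenced, keeping genotypes with ≥10 input reads and ≥1 read per output. Fitness is a logarithmic ratio of genotype to wild-type enrichment, in base 2, using inverse-variance-weighted replicate averages.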
row,Variant,polymerase ribozyme fitness (log ratio)
1,G17A U21A G39C C56U,-4.02
2,A16U C53G U96G U112A G128C,-3.45
3,G17C C62G C64U A68U U81G C114G,-6.46
4,A16C A41U G52C C64G C82G G110C,-6.92
5,G17C G36A C114G G127A,-5.69
6,G17C C88U,-4.49
7,A16G C53G A84C C88A C101G,-4.3
8,G17A A43U G120A,-3.38
9,A16G G61C A84C G117A A119G,-2.13
10,G17A G48C C124A G128A,-3.31
11,G17A G48U G57C G60A,-2.98
12,A16C A37C U112C,-2.37
13,A16G A50U U81G,-2.01
14,A16U G135U,-1.8
15,A16U C70A,-3.19
16,A16U G17C C114U,-1.76
17,A16C G117U A121C,-4.48
18,G17C C64U,-4.22
19,A16G G51C C82A C124G,-3.19
20,A16C G52A C70U C73U,-3.8
21,A16U G60A C62U U112C,-0.401
22,G17C A37U U54G U112C,-3.41
23,A16G C70U C76A,-2.84
24,A16G A41U G60U C86G C124G,-2.13

row,Variant,polymerase ribozyme fitness (log ratio)
1,C15U U130A,-1.54
2,A16C C53U C86G,-2.99
3,A16G G42U C102U C124G,-3.81
4,A16G G113C,-3.85
5,A16G G113A,-2.04
6,G17C C85G,-6.06
7,A16G G61C C72U U81A U106A U116C,1.38
8,A16G G42U C49A C56U G61A U96G U109G U134A,-5.05
9,G17A C40G G60A A83C A84C A121C,-3.61
10,G17C C79U,-4.69
11,A16U A50G G58A G60A C64U,-3.73
12,G17A G52A A118G,-4.15
13,A16C G60C A111G,-1.81
14,G17A C94G,-4.81
15,A16U G48C U59C U126C,-2.91
16,G17A G36U U112G,-4.13
17,G17C A91C,-4.65
18,G17A C72G,-3.28
19,G17A C72U,-2.29
20,A16C G25U A26G,-4.77
21,G17C A26G A37U C53G G57A A91G G93U A111U U129G,-6.27
22,G17A C62A U87C,-6.24
23,G17A U21A G44C A46C C73G,-5.53
24,C15U U33G G61U U87A U112C,-4.85

row,Variant,polymerase ribozyme fitness (log ratio)
1,G17A G63A C82U,-5.43
2,G17C C28U G61U C85A G110A G120C,-1.25
3,G17C G61A G120C,-1.39
4,A16C C22U G60C G93C A118U A121G,-6.04
5,G17C C49A C72U C82U C114U,-4.65
6,A16U C40A G51A U92C G113C U116C G117C,-6.65
7,A16U C49A C72A,-1.6
8,G17C A41U G51U C64U C104U G120A,-6.91
9,A16U G107U C124G,-4.06
10,A16U C79G,-2.59
11,C15U U21A U96G A118U,-0.0472
12,A16G A27G U32C A50G,-4.47
13,A16U C124U U129G,0.0068
14,A16U G45A G61U C82G,-1.81
15,A16G U92C U129C,-3.37
16,A16C C56A C97G,-5.42
17,G17A C20G A121G,-4.27
18,G17C A18C,-4.12
19,A16G U112A A119G,2.06
20,C15U U129C,-1.86
21,A16C C40U G52A U59G U112A,-1.53
22,G17A C40U G60A C79G,-6.54
23,G17C C49A C82U C114U,-5.49
24,C15U G127A U129A,-4.11

row,Variant,polymerase ribozyme fitness (log ratio)
1,G17A A18C C62G G120C,-4.41
2,A16U G42U,-2.52
3,G17C A121G U133A,-1.73
4,A16G U106A,-0.109
5,G17C C34G C99U G110U G127U,-5.7
6,A16U U21G C114U,-4.99
7,G17C C85G C86U A91U U112G,-6.74
8,A16G G44U G117A,-3.84
9,A16U A37G G113A,-4.83
10,A16U G71U,-0.858
11,A16G A84U A90C,-2.9
12,A16U C56A G117U,-3.11
13,G17A G47A A111U,-5.85
14,A16C U38G C70A,-4.31
15,A16C C97U A100U,-3.88
16,A16U G58U C123A,-2.18
17,G17C A41G A91U,-4.31
18,A16G C94U,-1.93
19,A16C C49A A74C C88A U116C,-3.06
20,A16U C102U,-3.23
21,A16U A18C C86A,-4.71
22,A16G U92C C102A,-5.14
23,A16U C79U A91G C123G U131G,-1.49
24,G17A G61A C124U,-2.13

row,Variant,polymerase ribozyme fitness (log ratio)
1,G17C G35A C98U G120A,-5.26
2,G17C C72U,-4.11
3,A16U G36A A41U C73A,-4.17
4,A16U G57U,-1.91
5,G17A C56A,-2.66
6,A16C A50U,-4.64
7,A16C C72G C82G G120C,-1.82
8,G17A G42U U129A,-4.5
9,G17A C20A C31G G36U A46C C124A,-7.12
10,A16C G71C U126C U131A,-4.45
11,A16G C28U U54G A121G,-0.979
12,C15U G71U C101U,-1.24
13,G17A G128C,-5.29
14,A16U C22U C62U U78C U92G G120A C123A,-6.53
15,A16C C56U A84C C85U A100C,-4.89
16,G17A A43G G47U G120C G135C,-2.39
17,G17A A41C G117U,-3.91
18,A16U A18G,-3.02
19,A16G A46C G120C,-0.418
20,C15U G110C,-4.52
21,G17A G71A C72U C94G C123G,-5.54
22,A16U U78A U92A,-4.78
23,G17C C80G C124A,-8.59
24,C15U U78G C86U G113C,-5.8

row,Variant,polymerase ribozyme fitness (log ratio)
1,G17A G36U C56U,-4.9
2,A16U C124U,0.484
3,G17C G61A C82A,-4.03
4,A16C C82G,-3.22
5,A16G U32A A50C C88U C123G U125A,-3.77
6,G17A G19U U55A C82A C114A,-3.12
7,G17A G93U,-4.76
8,G17C C40U A43U U130G,-3.78
9,G17C G19U G63U A91C C124A,-5.7
10,G17A G57C,-2.86
11,G17A G63C U109A C115A,-6.25
12,G17A C49G U55C A75U C76U G113U,-7.46
13,C15U U21C C49G G117A,0.389
14,G17A U38A U59G C115U G117U,-3.04
15,C15U U54G,-1.23
16,A16U G117U,-2.04
17,A16U G117A,-2.22
18,A16U A50C,-2.04
19,A16C U106A,-2.82
20,G17A G71A,-4.07
21,A16U G113U,-4.23
22,G17A C73U U112A A119U C123U U125C,-2.9
23,A16U G45C C56G C64U A83C,-4.1
24,A16C C82G G120C,-1.47

row,Variant,polymerase ribozyme fitness (log ratio)
1,G17C G42A A74G A84C A91U,-4.35
2,A16U G60U U87G G122A U126C,-3.42
3,A16U G61U,-1.11
4,A16U G61C,-2.41
5,A16U C114U,-4.86
6,A16G C62U,-1.57
7,A16U G48C G120A,-1.64
8,A16C G48A C73U,-3.7
9,A16G A27C C72U C123U,-3.64
10,G17A A46U,-4.52
11,C15U U38G G45A G60C A74U,-4.34
12,A16U A41C G57A A84U,-3.81
13,A16G G71C C124A U130A,0.62
14,A16U C62U,-1.92
15,A16G G35U C49G C115A A119G A121U,-4.09
16,G17A C20U,-3.63
17,G17A C20G,-4.82
18,A16G C94A A95U,-4.15
19,A16U G17A C20A C49A C73U,-4.77
20,A16G G35A A37G A84U A121G,-3.58
21,A16U C70U G117U C123A,-4.02
22,C15U U55G G69A,-3.22
23,A16U C49A G51U U55G U126G G128U,-5.16
